Test results: US7560248 (WISCONSIN ALUMNI RESEARCH FOUNDATION, dated 2009)
Numbering of substitutions follows the chain as printed. Names and notes keep the numbering of the source.

T1: C330A human ribonuclease inhibitor (human, UniProt P13489 2-461, limits assumed)
T1 construct: also called C330A hRI
T1 sequence: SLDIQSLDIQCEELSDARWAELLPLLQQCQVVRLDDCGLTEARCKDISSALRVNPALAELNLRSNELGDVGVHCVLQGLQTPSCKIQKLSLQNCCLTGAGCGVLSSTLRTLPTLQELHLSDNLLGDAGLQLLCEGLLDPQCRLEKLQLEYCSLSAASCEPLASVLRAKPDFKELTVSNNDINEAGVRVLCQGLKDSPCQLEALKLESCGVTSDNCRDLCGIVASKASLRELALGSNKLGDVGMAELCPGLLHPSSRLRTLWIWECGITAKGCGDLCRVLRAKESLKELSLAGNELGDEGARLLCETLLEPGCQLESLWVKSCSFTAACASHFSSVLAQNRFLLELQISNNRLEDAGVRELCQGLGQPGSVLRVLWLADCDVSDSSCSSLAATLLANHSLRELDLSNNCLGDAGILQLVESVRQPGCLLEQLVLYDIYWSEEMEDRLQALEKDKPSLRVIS

T2: C329A human ribonuclease inhibitor (human, UniProt P13489 2-461, limits assumed)
T2 construct: also called C329A hRI
T2 sequence: T1 sequence with C328A, A329C

T3: C95A/C96A human ribonuclease inhibitor (human, UniProt P13489 2-461, limits assumed)
T3 construct: also called C95A/C96A hRI
T3 sequence: T1 sequence with C94A, C95A, A329C

T4: C329A/C330A human ribonuclease inhibitor (human, UniProt P13489 2-461, limits assumed)
T4 construct: also called C329A/C330A hRI
T4 sequence: T1 sequence with C328A

T5: wild-type human ribonuclease inhibitor (human, UniProt P13489 2-461, limits assumed)
T5 construct: Made in E. coli from plasmid pET-RI; also called hRI; wild-type hRI
T5 sequence: T1 sequence with A329C

B1: C95A/C96A/C329A/C330A human ribonuclease inhibitor (other)
chain: T1 sequence with C94A, C95A, C328A
notes: Variant with all four substitutions; also called C95A/C96A/C329A/C330A hRI
B2: ribonuclease A (enzyme, UniProt P61823 27-150, looked up)
chain: KETAAAKFERQHMDSSTSAASSSNYCNQMMKSRNLTKDRCKPVNTFVHESLADVQAVCSQKNVACKNGQTNCYQSYSTMSITDCRETGSSKYPNCAYKTTQANKHIIVACEGNPYVPVHFDASV
notes: also called RNASE A; RNase A

Legend:
ribonuclease A = target: B2; assay: affinity chromatography on RNase A-Sepharose 4B resin
[1] = target: T1, C330A human ribonuclease inhibitor; assay: inhibition of RNase A activity, poly(C) cleavage assay
Description: (§1) A solution (101) of 20 mM HEPES-HCl buffer, pH 7.6, containing KCl (50 mM) and RNASE A (80 nM) was added to each of the hRI solutions. The resulting mixtures were incubated at 37° C. for 5 min. The ribonucleolytic activity in each mixture was then assessed by using a spectrophotometric assay for poly(C) cleavage, as described (delCardayre et al., 1995), with [poly(C)]=37 μM. This experiment was performed at least twice with wild-type hRI and each variant.

[2] = target: T2, C329A human ribonuclease inhibitor; assay: as above
Description: as §1

[3] = target: T3, C95A/C96A human ribonuclease inhibitor; assay: affinity chromatography on RNase A-Sepharose 4B resin
[4] = target: T4, C329A/C330A human ribonuclease inhibitor; assay: as above
[5] = target: T5, wild-type human ribonuclease inhibitor; assay: as above

binding result (ribonuclease A) | binding result [1] | binding result [2] | binding result [3] | binding result [4] | binding result [5] | Binder
binds | – | – | – | – | – | B1
– | binds | binds | binds | binds | binds | B2
